Measured values published in patent publication US20130330346A1 (Novartis, published 2013).

Key:
Human CXCR2 [1] = molecular target: T1, Human CXCR2 (human, UniProt P25025 1-360); assay: FACS competition vs 3 nM FMAT-Blue Gro-α
T1 construct: Some cell lines carry an N-terminal 3xHA tag; also called hCXCR2; huCXCR2
T1 sequence: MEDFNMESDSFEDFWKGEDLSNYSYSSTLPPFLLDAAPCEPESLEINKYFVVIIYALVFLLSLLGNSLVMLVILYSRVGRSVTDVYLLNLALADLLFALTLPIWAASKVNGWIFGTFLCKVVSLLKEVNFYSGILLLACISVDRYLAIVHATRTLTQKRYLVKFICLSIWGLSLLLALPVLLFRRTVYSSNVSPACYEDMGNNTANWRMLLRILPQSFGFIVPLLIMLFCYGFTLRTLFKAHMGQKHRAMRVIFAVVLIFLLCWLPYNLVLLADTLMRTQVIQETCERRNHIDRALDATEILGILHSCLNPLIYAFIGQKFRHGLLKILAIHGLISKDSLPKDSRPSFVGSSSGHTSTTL
Description: (§1) Multivalent anti-CXCR2Nanobodies were titrated against 3 nM FMAT-Blue-labeled Gro-α in the FACS ligand competition assay on human and cynomolgus CXCR2 (Table 14). On human CXCR2, blocking potencies range between double digit nM and sub-nM whereas on cynomolgus CXCR2, they range between single and double digit nM.

Cynomolgus CXCR2 [2] = molecular target: T2, Cynomolgus CXCR2 (cynomolgus, UniProt Q28519 3-353 (rhesus entry)); assay: FACS competition vs 3 nM FMAT-Blue Gro-α
T2 construct: On transfected HEK293T or RBL-2H3 cells; native on cynomolgus neutrophils in the WBSC assay; also called cCXCR2; cynoCXCR2
T2 chain: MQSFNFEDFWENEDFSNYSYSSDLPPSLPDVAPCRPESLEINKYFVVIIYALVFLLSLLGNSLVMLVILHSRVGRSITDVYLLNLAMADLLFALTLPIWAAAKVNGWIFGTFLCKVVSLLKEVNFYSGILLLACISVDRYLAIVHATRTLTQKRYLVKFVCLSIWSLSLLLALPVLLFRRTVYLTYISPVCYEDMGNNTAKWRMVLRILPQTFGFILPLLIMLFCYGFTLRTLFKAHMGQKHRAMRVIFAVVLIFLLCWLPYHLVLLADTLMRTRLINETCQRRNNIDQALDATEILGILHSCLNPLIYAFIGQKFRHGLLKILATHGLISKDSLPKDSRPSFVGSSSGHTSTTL
Description: as §1

Human CXCR2 [3] = molecular target: T1, Human CXCR2; assay: cell-based or functional assay
Human CXCR2 [4] = molecular target: T1, Human CXCR2; assay: cell-based or functional assay; remark: listed apart in the source
Cynomolgus CXCR2 [5] = molecular target: T2, Cynomolgus CXCR2; assay: cell-based or functional assay

B1: CXCR20023 (bispecific antibody)
chain: EVQLVESGGGLVQAGGSLRLSCAASGRTFSDYAMGWFRQAPGKEREFVAAITWNGGRVFYTASVKGRFTISRDNAKNTMYLQMNSLKPEDTAVYYCAADKDRRTDYLGHPVAYWGQGTQVTVSSGGGGSGGGGSGGGGSGGGGSGGGGSGGGGSGGGGSEVQLVESGGGLVQPGGSLRLSCVASGRIFSSNAMGWFRQAPGKEREFVAAITWRSGGSAYYADSAKGRFTISRDNAKNTVYLQMNSLKPEDTAVYYCAAGGSSWLSFPPDYWGQGTQVTVSS
notes: Two different VHH joined by a GlySer linker; also called 163D2-35GS-163E3; not shown: C-terminal c-myc tag and His6 tag coded by pAX100
% inhibition of max (Human CXCR2 [1]): 99% | IC50 (Human CXCR2 [1]): 4.28 nM | % inhibition of max (Cynomolgus CXCR2 [2]): 96% | IC50 (Cynomolgus CXCR2 [2]): 6.61 nM | [35S]GTPγS % inhibition of max (GRO-α) (Human CXCR2 [3]): 100% | [35S]GTPγS IC50 (GRO-α) (Human CXCR2 [3]): 26.6 nM | FLIPR % inhibition of max (Human CXCR2 [4]): 100% | FLIPR IC50 (GRO-α induced calcium release) (Human CXCR2 [4]): 14.8 nM | FLIPR % inhibition of max (Cynomolgus CXCR2 [5]): 100% | FLIPR IC50 (GRO-α induced calcium release) (Cynomolgus CXCR2 [5]): 12 nM

B2: CXCR20024 (VHH)
chain: EVQLVESGGGLVQPGGSLRLSCVASGRIFSSNAMGWFRQAPGKEREFVAAITWRSGGSAYYADSAKGRFTISRDNAKNTVYLQMNSLKPEDTAVYYCAAGGSSWLSFPPDYWGQGTQVTVSSGGGGSGGGGSGGGGSGGGGSGGGGSGGGGSGGGGSEVQLVESGGGLVQPGGSLRLSCVASGRIFSSNAMGWFRQAPGKEREFVAAITWRSGGSAYYADSAKGRFTISRDNAKNTVYLQMNSLKPEDTAVYYCAAGGSSWLSFPPDYWGQGTQVTVSS
notes: Bivalent: two VHH joined by a GlySer linker; also called 163E3-35GS-163E3; not shown: C-terminal c-myc tag and His6 tag coded by pAX100
% inhibition of max (Human CXCR2 [1]): 99% | IC50 (Human CXCR2 [1]): 5.27 nM | % inhibition of max (Cynomolgus CXCR2 [2]): 95% | IC50 (Cynomolgus CXCR2 [2]): 5.32 nM | [35S]GTPγS % inhibition of max (GRO-α) (Human CXCR2 [3]): 100% | [35S]GTPγS IC50 (GRO-α) (Human CXCR2 [3]): 30.3 nM | FLIPR % inhibition of max (Human CXCR2 [4]): 100% | FLIPR IC50 (GRO-α induced calcium release) (Human CXCR2 [4]): 26.4 nM | FLIPR % inhibition of max (Cynomolgus CXCR2 [5]): 100% | FLIPR IC50 (GRO-α induced calcium release) (Cynomolgus CXCR2 [5]): 11.8 nM

B3: CXCR20025 (bispecific antibody)
chain: EVQLVESGGGLVQAGGSLRLSCAASGRTFSDYAMGWFRQAPGKEREFVAAITWNGGRVFYTASVKGRFTISRDNAKNTMYLQMNSLKPEDTAVYYCAADKDRRTDYLGHPVAYWGQGTQVTVSSGGGGSGGGGSGGGGSGGGGSGGGGSGGGGSGGGGSEVQLVESGGGLVQAGESLRLSCAASGSTFDFKVMGWYRQPPGKQREGVAAIRLSGNMHYAESVKGRFTISKANAKNTVYLQMNSLRPEDTAVYYCKVNIRGQDYWGQGTQVTVSS
notes: Biparatopic: two VHH joined by a GlySer linker; also called 163D2-35GS-127D1; not shown: C-terminal c-myc tag and His6 tag coded by pAX100
% inhibition of max (Human CXCR2 [1]): 99% | IC50 (Human CXCR2 [1]): 0.9 nM | % inhibition of max (Cynomolgus CXCR2 [2]): 98.5% | IC50 (Cynomolgus CXCR2 [2]): 2.08 nM | [35S]GTPγS % inhibition of max (GRO-α) (Human CXCR2 [3]): 100% | [35S]GTPγS IC50 (GRO-α) (Human CXCR2 [3]): 0.891 nM | FLIPR % inhibition of max (Human CXCR2 [4]): 100% | FLIPR IC50 (GRO-α induced calcium release) (Human CXCR2 [4]): 12.2 nM | FLIPR % inhibition of max (Cynomolgus CXCR2 [5]): 100% | FLIPR IC50 (GRO-α induced calcium release) (Cynomolgus CXCR2 [5]): 7.88 nM

B4: CXCR20031 (bispecific antibody)
chain: EVQLVESGGELVQPGGSLRLSCAASGSILTINAMGWYRQAPGKQRELVVRRTRGGSTTYQDSVKGRFTISADIAKKTMYLQMNSLKPEDTAVYYCMLDDRGGVYWGQGTQVTVSSGGGGSGGGGSGGGGSGGGGSGGGGSGGGGSGGGGSEVQLVESGGGLVQPGGSLRLSCVASGRIFSSNAMGWFRQAPGKEREFVAAITWRSGGSAYYADSAKGRFTISRDNAKNTVYLQMNSLKPEDTAVYYCAAGGSSWLSFPPDYWGQGTQVTVSS
notes: Biparatopic: two VHH joined by a GlySer linker; also called 2B2-35GS-163E3; not shown: C-terminal c-myc tag and His6 tag coded by pAX100
% inhibition of max (Human CXCR2 [1]): 100% | IC50 (Human CXCR2 [1]): 0.49 nM | % inhibition of max (Cynomolgus CXCR2 [2]): 99% | IC50 (Cynomolgus CXCR2 [2]): 1.98 nM | [35S]GTPγS % inhibition of max (ENA-78) (Human CXCR2 [3]): 100% | [35S]GTPγS % inhibition of max (IL-8) (Human CXCR2 [3]): 100% | [35S]GTPγS IC50 (ENA-78) (Human CXCR2 [3]): 1.38 nM | [35S]GTPγS IC50 (IL-8) (Human CXCR2 [3]): 0.84 nM | FLIPR % inhibition of max (Human CXCR2 [4]): 100% | FLIPR IC50 (GRO-α induced calcium release) (Human CXCR2 [4]): 15.2 nM | FLIPR % inhibition of max (Cynomolgus CXCR2 [5]): 100% | FLIPR IC50 (GRO-α induced calcium release) (Cynomolgus CXCR2 [5]): 4.26 nM

B5: CXCR20032 (bispecific antibody)
chain: EVQLVESGGELVQPGGSLRLSCAASGSILTINAMGWYRQAPGKQRELVVRRTRGGSTTYQDSVKGRFTISADIAKKTMYLQMNSLKPEDTAVYYCMLDDRGGVYWGQGTQVTVSSGGGGSGGGGSGGGGSGGGGSGGGGSGGGGSGGGGSEVQLVESGGGLVQAGGSLRLSCAASGRTFSDYAMGWFRQAPGKEREFVAAITWNGGRVFYTASVKGRFTISRDNAKNTMYLQMNSLKPEDTAVYYCAADKDRRTDYLGHPVAYWGQGTQVTVSS
notes: Biparatopic: two VHH joined by a GlySer linker; also called 2B2-35GS-163D2; not shown: C-terminal c-myc tag and His6 tag coded by pAX100
% inhibition of max (Human CXCR2 [1]): 100% | IC50 (Human CXCR2 [1]): 0.5 nM | % inhibition of max (Cynomolgus CXCR2 [2]): 99% | IC50 (Cynomolgus CXCR2 [2]): 1.91 nM | [35S]GTPγS % inhibition of max (ENA-78) (Human CXCR2 [3]): 100% | [35S]GTPγS % inhibition of max (IL-8) (Human CXCR2 [3]): 100% | [35S]GTPγS IC50 (ENA-78) (Human CXCR2 [3]): 0.116 nM | [35S]GTPγS IC50 (IL-8) (Human CXCR2 [3]): 0.997 nM | FLIPR % inhibition of max (Human CXCR2 [4]): 100% | FLIPR IC50 (GRO-α induced calcium release) (Human CXCR2 [4]): 14.7 nM | FLIPR % inhibition of max (Cynomolgus CXCR2 [5]): 100% | FLIPR IC50 (GRO-α induced calcium release) (Cynomolgus CXCR2 [5]): 3.65 nM
